Drawing on paper PMC2390755, this text covers percent of the total protein in larval nuclear extract associated with ISWI (densitometry) for one substance.

The target in the test is TAP-tagged ISWI (D. melanogaster) (UniProt Q24368). Description: pull-down; tandem affinity purification of TAP-tagged ISWI from larval nuclear extracts (IPP150 buffer): IgG agarose, TEV cleavage, calmodulin resin, SDS elution; Western blot for ISWI, Sin3A, Rpd3; untagged extracts as control.
Sequence of UniProt Q24368 (Q24368 whole entry): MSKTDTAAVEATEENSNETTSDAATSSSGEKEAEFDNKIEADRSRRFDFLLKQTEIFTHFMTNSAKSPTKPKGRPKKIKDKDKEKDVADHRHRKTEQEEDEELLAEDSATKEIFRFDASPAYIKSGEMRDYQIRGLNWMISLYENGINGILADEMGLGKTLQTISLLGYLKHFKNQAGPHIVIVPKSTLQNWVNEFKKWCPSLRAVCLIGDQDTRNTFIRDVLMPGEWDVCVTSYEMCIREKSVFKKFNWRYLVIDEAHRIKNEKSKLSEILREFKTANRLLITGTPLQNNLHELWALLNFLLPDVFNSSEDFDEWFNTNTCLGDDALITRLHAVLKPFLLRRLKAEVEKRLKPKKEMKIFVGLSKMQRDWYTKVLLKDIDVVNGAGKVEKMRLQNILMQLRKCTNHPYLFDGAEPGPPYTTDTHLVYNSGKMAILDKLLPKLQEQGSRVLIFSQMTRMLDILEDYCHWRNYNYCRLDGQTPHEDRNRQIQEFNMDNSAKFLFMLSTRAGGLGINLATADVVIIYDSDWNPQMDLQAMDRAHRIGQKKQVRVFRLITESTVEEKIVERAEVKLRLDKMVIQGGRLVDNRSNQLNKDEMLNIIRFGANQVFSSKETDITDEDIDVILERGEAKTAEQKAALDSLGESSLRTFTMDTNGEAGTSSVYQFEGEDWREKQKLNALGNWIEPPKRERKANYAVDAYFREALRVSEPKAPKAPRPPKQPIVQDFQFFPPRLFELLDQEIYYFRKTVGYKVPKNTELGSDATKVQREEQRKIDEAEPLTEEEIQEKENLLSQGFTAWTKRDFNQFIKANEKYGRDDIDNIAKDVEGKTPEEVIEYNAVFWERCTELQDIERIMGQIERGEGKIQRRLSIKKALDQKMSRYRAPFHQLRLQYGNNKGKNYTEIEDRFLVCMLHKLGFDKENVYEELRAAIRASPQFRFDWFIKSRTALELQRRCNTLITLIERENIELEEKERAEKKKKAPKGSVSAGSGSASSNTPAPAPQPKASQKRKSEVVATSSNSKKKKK

In the case of Sin3A (natural protein), the percent of the total protein in larval nuclear extract associated with ISWI (densitometry) turned out to be 15%.
